Data published in PMC6494689.

Key:
[1] = molecular target: BbRAG1L NBD* domain (purified NBD* protein) (Branchiostoma belcheri); assay: SEC-MALS
[2] = molecular target: MBP-tagged core BbRAG1L (cBbRAG1L; aa 468-1136) (Branchiostoma belcheri); assay: SEC-MALS

Row | stoichiometry N [1] | stoichiometry N (BbRAG2L per cBbRAG1L (2:2)) [2] | Substance
1 | 2 | – | BbRAG1L NBD* domain (purified NBD* protein) (domain or fragment)
2 | – | 1 | MBP-tagged full length BbRAG2L (natural protein)
